Experimental data taken from article PMC4121139.

Biological target: human serum albumin (human) (UniProt P02768)
Assay: SPR

“albumin-binding domain (ABD) derived from streptococcal protein G (domain or fragment)” was tested, and the Kd was 8.1 nM, the koff was 0.00044 s⁻¹ and the kon was 54000 M⁻¹ s⁻¹.
